Test results from patent US20160137740A1 (AstraZeneca / MedImmune, published 2016).

How the values were obtained:
Human OX40 [1] = molecular target: T1, Human OX40 (human, UniProt P43489 29-277); test: cell-based or functional assay
T1 sequence: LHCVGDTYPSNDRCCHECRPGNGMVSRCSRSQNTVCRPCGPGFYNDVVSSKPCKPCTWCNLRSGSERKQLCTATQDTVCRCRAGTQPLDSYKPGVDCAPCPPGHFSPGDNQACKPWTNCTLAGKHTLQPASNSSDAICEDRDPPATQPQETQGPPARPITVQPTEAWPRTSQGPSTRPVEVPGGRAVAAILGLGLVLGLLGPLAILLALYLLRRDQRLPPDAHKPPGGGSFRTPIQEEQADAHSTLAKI

Human OX40 [2] = molecular target: T1, Human OX40; test: cell-based or functional assay; remark: listed apart in the source
Human OX40 [3] = molecular target: T1, Human OX40; test: cell-based or functional assay; remark: listed apart in the source
Human OX40 [4] = molecular target: T1, Human OX40; test: cell-based or functional assay; remark: listed apart in the source
Human OX40 [5] = molecular target: T1, Human OX40; test: cell-based or functional assay; remark: listed apart in the source
Human OX40 [6] = molecular target: T1, Human OX40; test: flow cytometry, equilibrium binding to activated primary human CD4+ T cells; apparent Kd, mean of 6 donors (StdErr)
Description: (§1) OX40mAb24 (10 μg/mL) or 9B12 (10 μg/mL) was diluted over a 17 point 2-fold dilution series. OX40mAb24 was added to 100,000 cells (activated primary CD4⁺ T cells or human OX40-overexpressing Jurkat NFkB-luciferase clone 64 cells) per well and incubated for one hour at 4° C. For background binding subtraction, cells were incubated in the presence of secondary antibody alone. […] Following secondary antibody incubation, cells were washed and suspended in 100 μL FACS buffer for flow cytometry analysis on a BD LSRII flow cytometer as described below.

Human OX40 [7] = molecular target: T1, Human OX40; test: flow cytometry on human OX40-overexpressing Jurkat clone 64 cells; 50% receptor occupancy calculated from Kd
Description: Human OX40-overexpressing Jurkat NFκB-luciferase clone 64 cells were cultured in complete RPMI+10% FBS prior to binding experiments, without the need for activation.
as §1

[8] = molecular target: T2, Recombinant human TNFRSF11A (RANK) (human, UniProt Q9Y6Q6 30-212); test: ELISA, plate coated with a dilution series of the recombinant TNFRSF protein [panel B]
T2 construct: Plate-adsorbed antigen of the ELISA; also called CD265
T2 sequence (looked up): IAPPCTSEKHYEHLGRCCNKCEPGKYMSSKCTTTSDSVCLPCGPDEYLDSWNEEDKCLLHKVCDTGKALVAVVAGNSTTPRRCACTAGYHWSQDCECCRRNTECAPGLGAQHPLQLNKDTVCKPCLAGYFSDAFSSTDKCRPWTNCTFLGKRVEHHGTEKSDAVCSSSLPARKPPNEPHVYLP
Description: (§2) An eight point, two-fold dilution series of each recombinant human TNFRSF protein was prepared after dilution of stock proteins to 5 μg/mL in PBS. Subsequently, 50 μL of each antigen dilution was transferred in duplicate to wells of a Nunc 96-well MaxiSorp flat bottom plate, and incubated overnight at 4° C. to adsorb proteins to the plate. Afterwards, plates were washed three times with PBS in a BioTek® plate washer to remove unbound protein. Anti OX40 mAb29, 9B12, and control antibodies were diluted in PBS to a final concentration of 10 μg/mL, and 50 μL of mAb were added to each well and incubated at room temperature for one hour to bind mAb to plate-bound protein. Thereafter, wells were washed with PBS/Tween-20 0.1% (volume/volume) using a BioTek® plate washer. HRP conjugated goat anti-human or goat anti-mouse secondary antibodies at 10 μg/mL was added to each well and incubated at room temperature for 1 hour. After three washes in PBS/Tween-20 0.1%, 50 μL of TMB substrate was added to each well and incubated at room temperature for 5 minutes to develop the colorimetric product. Reactions were stopped by adding 50 μL of 0.5 molar H₂SO₄ to wells, and plates read immediately at 450 nm using an Envision C plate reader for detection of the colorimetric product.

[9] = molecular target: T3, Recombinant human TNFRSF3 (LTβR) (human, UniProt P36941 28-227, limits assumed); test: as above
T3 construct: Plate-adsorbed antigen of the ELISA
Description: as §2

[10] = molecular target: T4, Recombinant human TNFRSF5 (CD40) (human, UniProt P25942 21-193); test: as above
T4 construct: Plate-adsorbed antigen of the ELISA
Description: as §2

Human OX40 [11] = molecular target: T1, Human OX40; test: cell-based or functional assay; remark: listed apart in the source

T4 sequence (P25942 21-193 limits assumed): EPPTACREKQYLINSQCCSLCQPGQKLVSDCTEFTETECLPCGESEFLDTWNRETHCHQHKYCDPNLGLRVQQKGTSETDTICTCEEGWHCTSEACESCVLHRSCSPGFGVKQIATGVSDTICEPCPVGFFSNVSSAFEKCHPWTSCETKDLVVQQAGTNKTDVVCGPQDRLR
T3 sequence (P36941 28-227 limits assumed): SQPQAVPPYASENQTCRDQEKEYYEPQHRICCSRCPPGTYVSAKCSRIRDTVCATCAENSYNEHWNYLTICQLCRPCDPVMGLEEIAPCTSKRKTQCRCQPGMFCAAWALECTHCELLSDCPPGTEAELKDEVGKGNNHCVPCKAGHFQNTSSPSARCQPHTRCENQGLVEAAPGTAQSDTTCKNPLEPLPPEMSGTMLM

EC50, IFNγ release, donor 645 (Human OX40 [1]): 2380 pM | EC50, IFNγ release, donor 651 (Human OX40 [1]): 758 pM | EC50, IL13 release, donor 645 (Human OX40 [2]): 5450 pM | EC50, IL13 release, donor 651 (Human OX40 [2]): 1770 pM | EC50, IL13 release, donor 661 (Human OX40 [2]): 238 pM | EC50, IL5 release, donor 651 (Human OX40 [3]): 1090 pM | EC50, TNFα release, donor 645 (Human OX40 [4]): 670 pM | EC50, TNFα release, donor 651 (Human OX40 [4]): 764 pM | EC50, NFκB-luciferase 2-cell assay, exp 1, Raji (Human OX40 [5]): 9280 pM | EC50, NFκB-luciferase 2-cell assay, exp 2, CD32A-expressing HEK (Human OX40 [5]): 338 pM | EC50, NFκB-luciferase 2-cell assay, exp 3, CD32A-expressing HEK (Human OX40 [5]): 225 pM | EC50, NFκB-luciferase 2-cell assay, exp 4, Raji (Human OX40 [5]): 5040 pM | EC50, NFκB-luciferase 2-cell assay, exp 5, CD32B-expressing HEK (Human OX40 [5]): 726 pM | EC50, NFκB-luciferase 2-cell assay, exp 6, Raji (Human OX40 [5]): 2700 pM | EC50, NFκB-luciferase 2-cell assay, exp 7, CD32B-expressing HEK (Human OX40 [5]): 1770 pM | EC50, NFκB-luciferase 2-cell assay, exp 8, CD32B-expressing HEK (Human OX40 [5]): 1340 pM | EC50, NFκB-luciferase 2-cell assay, exp 9, Raji (Human OX40 [5]): 3070 pM | EC50, NFκB-luciferase 2-cell assay, exp 10, Raji (Human OX40 [5]): 3330 pM | EC50, NFκB-luciferase 2-cell assay, exp 11, CD32B-expressing HEK (Human OX40 [5]): 2360 pM | EC50, NFκB-luciferase 2-cell assay, exp 12, CD45+ cells, NSCLC (Human OX40 [5]): 223 pM | EC50, NFκB-luciferase 2-cell assay, exp 15, CD45+ cells, RCC (Human OX40 [5]): 2420 pM | Kd (Human OX40 [6]): 669 pM | EC50 (Human OX40 [7]): 726 pM | binding result [8]: no binding | binding result [9]: no binding | binding result [10]: no binding | EC50, CD4+ T cell proliferation, donor 367 (Human OX40 [11]): 156 pM | EC50, CD4+ T cell proliferation, donor 645 (Human OX40 [11]): 169 pM | EC50, CD4+ T cell proliferation, donor 651 (Human OX40 [11]): 309 pM | EC50, CD4+ T cell proliferation, donor 661 (Human OX40 [11]): 237 pM
B1: 9B12 (antibody, mouse IgG1, V domains shown)
VH: EVQLQESGPSLVKPSQTLSLTCSVTGDSFTSGYWNWIRKFPGNRLEYMGYISYNGITYHNPSLKSRISITRDTSKNHYYLQLNSVTTEDTATYFCARYRYDYDGGHAMDYWGQGTLVTVSS
VL: DIQMTQTTSSLSASLGDRVTISCRASQDISNYLNWYQQKPDGTVKLLIYYTSKLHSGVPSRFSGSGSRTDYSLTITDLDQEDIATYFCQQGSALPWTFGQGTKVEIKR
notes: mouse IgG1 kappa; also called murine mAb 9B12; mouse anti-human OX40 IgG1κ monoclonal antibody
